Experimental data from US11370846B2, “Compositions and methods to regulate Renalase in the treatment of cancer” (Yale University, priority 2014, dated 2022).
Entries after “also recorded” stand apart in the source; their conditions may differ.

Experiments:
PDACC = PDACC growth with anti-RNLS antibodies, WST-1; assay type: cell-based, human; conditions: 72 hrs
Protocol: FIG. 25A through FIG. 25E are a series of charts and images showing that inhibition of RNLS signaling is cytotoxic to cancer cells in vitro and in vivo. FIG. 25A is a chart showing relative cell viability following transient transfection of Panc1 cells using a RNLS-specific siRNA, or a non-specific control siRNA, and cell viability assayed 96 h later using the WST-1 reagent; n=6, ** indicates p<0.001. FIG. 25B is a chart showing relative cell viability when cells were treated with indicated antibodies for 72 hrs and cell viability determined using WST-1; m28-RNLS and m37-RNLS: monoclonal antibodies raised against RNLS peptide RP220, ab31291: Abcam polyclonal antibody raised against a partial sequence of RP-220; n=6, * indicates p<0.005. […] FIG. 25D is a chart showing tumor volume increase after athymic nude mice received subcutaneous injection of Panc1 cells transduced with RNLS shRNA (sh-RNLS) or control (sh-Control); tumor volume measured every […] for up to 30 days, n=6 each; * indicates p<0.05. FIG. 25E is chart showing tumor volume increase after nude mice were xenografted with BxPC3; tumor volume measured prior to treatment every 3-4 days with 2 mg/kg of either rabbit IgG as a negative control or with m28-RNLS, n=10, * indicates p<0.05.

A375.S2 xenograft tumors = assay type: in vivo
Protocol: Immunohistochemistry was performed as described previously (Guo et al., 2012 Cancer science. 103:1474-80). Briefly, tumor tissues were formalin-fixed, paraffin-embedded and cut into 5-μm sections on glass slides. The slides were de-paraffinized and hydrated, followed by antigen retrieval in a pressure cooker containing 10 mM sodium citrate, pH6 buffer. The sections were blocked in 3% hydrogen peroxide for 30 min and 2.5% normal horse serum in PBS/0.1% Tween20 for 1 h followed by incubation with primary antibody and isotype control IgG overnight at 4° C. The following antibodies were used in this study: m28-RNLS at 500 ng/ml; goat polyclonal anti-RNLS at 250 ng/ml (Abcam, ab31291); rabbit monoclonal anti-CD68 (BDBioscience, 1:100); rabbit monoclonal anti-CD163 (AbD Serotec, 1:100); rabbit monoclonal anti-CD86 (Abcam, 1:100); rabbit monoclonal anti-Ki67 (Vector Lab, VP-RM04, 1:100); rabbit monoclonal anti-p21, phspho-Tyr^705-Stat3, and total Stat3 (Cell Signaling Technologies, #2947, 1:100, #9145, 1:400, and #4904, 1:400, respectively). ImmPRESS peroxidase-anti-rabbit IgG (Vector Laboratories, Burlingame, Calif., USA) was used to detect primary antibodies. The color was developed using a Vector DAB substrate kit and counterstained with hematoxylin (Vector Laboratories). Slides were observed and photographed using an Olympus BX41 microscope and camera (Olympus America Inc, Center Valley, Pa., USA).
Female athymic, 18-20 g nude mice (nu/nu) were obtained from Charles River (Willimantic, Conn.) and housed in microisolator cages, with autoclaved bedding in a specific pathogen-free facility, with a 12-h light/dark cycle.
Xenograft tumors were established by subcutaneous injection of A375.S2 cells (2×10^6 in 100 μl of PBS, pH 7.6). When the tumors reached a volume of 50-100 mm^3, the mice were divided into a control group (n=14 treated with rabbit IgG, 40 μg by intraperitoneal injection (IP) once weekly, and 40 ug subcutaneously (SQ) around the tumor site every 3 days), and an experimental group (n=14) that received m28-RNLS (40 μg IP, once weekly, and 40 ug SQ, every 3 days). Tumor size was measured with digital calipers and volume was calculated according to the formula (length×width)×π/2.
At the end of the study, the mice were sacrificed, the tumors were excised and immediately snap-frozen in liquid nitrogen and stored at −80° C. Apoptosis was examined using the TUNEL assay (Roche in situ Apoptosis Detection System), according to the manufacturer's instructions. Sections were examined by light microscopy and the apoptosis index was determined by counting >1000 cells in 10 randomly selected high-power fields (×200 magnification).

p38 MAPK = p38 MAPK phosphorylation in Panc1 cells by western blot; assay type: cell-based, human; conditions: beginning at day 1 post treatment
Protocol: FIG. 26A through FIG. 26E are a series of images and charts showing that inhibition of RNLS signaling induces apoptosis and cell cycle arrest. […] FIG. 26B is a chart depicting FACS analysis of Panc1 cells in culture treated with either m28-RNLS (30 μg/ml) or 100 μM etoposide (positive control) for 4 days; n=3, * indicates p<0.05. FIG. 26C is an image showing Panc1 cells treated with polyclonal ab31291 or with goat IgG as a negative control, and cells lysates probed for p38 and Bax activation by western blot. […] FIG. 26E is a chart showing the effect of m28-RNLS on cell cycle of Panc1 cells determined by FACS analysis; green curve: no treatment, purple curve: rabbit IgG, red curve: m28-RNLS 30 μg/ml.

[1] = tested on: renalase-1 and renalase-2; assay: Renalase isoform specificity of anti-renalase antibodies; assay type: binding, human; conditions: renalase-1 vs renalase-2
Protocol: Peptides were used as immunogens. The peptides generated ranged from 9 to 21 amino acids and corresponded to regions of the renalase-1 and renalase-2 proteins. […] Each peptide was conjugated to the adjuvant KLH via the cysteine and used to immunize 6 rabbits. Antiserum collected from each animal was screened for anti-renalase antibody titer by ELISA assay using both the relevant peptide (BSA-conjugate) or full length renalase-1 or 2. The antisera were also tested for their ability to detect endogenous renalase in tissue lysates by western blot. Using these screening criteria the animals producing antibodies with the preferred characteristics were selected. In some examples and for some peptides, several animals produced antibodies with the required specificity. […] Polyclonal antibodies raised against all of the peptides were generated by purification of total IgG from terminal bleeds by protein G chromatography followed by further purification on peptide affinity chromatography. Further and using standard procedures, lymphocytes from the spleens of selected animals were fused to myeloma cells for hybridoma generation. The hybridoma supernatants were screened for binding to both the peptides against which they were raised and secondarily screened against whole renalase protein. Selected hybridomas were sub-cloned and expanded for antibody purification. The monoclonal antibodies were purified from conditioned hybridoma culture supernatant by protein A affinity chromatography.

B1: 1D-28-4: rabbit anti-renalase monoclonal raised against peptide RP-220 (antigen 1D); heavy chain SEQ ID NO:9, light chain SEQ ID NO:10 (antibody)
heavy: METGLRWLLLVAVLKGVQCQSVEESGGRLVTPGTPLTLTCTVSGFSLSSFAVGWVRQAPGKGLEYIGIISSVGITRYASWAAGRFTISKTSTTVDLKITSPTTEDTATYFCARYGYSGDVNRLDLWGQGTLVTVSSGQPKAPSVFPLAPCCGDTPSSTVTLGCLVKGYLPEPVTVTWNSGTLTNGVRTFPSVRQSSGLYSLSSVVSVTSSSQPVTCNVAHPATNTKVDKTVAPSTCSKPTCPPPELLGGPSVFIFPPKPKDTLMISRTPEVTCVVVDVSQDDPEVQFTWYINNEQVRTARPPLREQQFNSTIRVVSTLPIAHQDWLRGKEFKCKVHNKALPAPIEKTISKARGQPLEPKVYTMGPPREELSSRSVSLTCMINGFYPSDISVEWEKNGKAEDNYKTTPAVLDSDGSYFLYSKLSVPTSEWQRGDVFTCSVMHEALHNHYTQKSISRSPGK
light: MDTRAPTQLLGLLLLWLPGATFAQVLTQTASPVSAAVGGTVTINCQASQSVYDNNNLAWYQQKPGQPPKQLIYGASTLASGVSSRFKGSGSGTQFTLTISGVQCDDAATYYCLGEFSCSSADCFAFGGGTEVVVKGDPVAPTVLIFPPSADLVATGTVTIVCVANKYFPDVTVTWEVDGTTQTTGIENSKTPQNSADCTYNLSSTLTLTSTQYNSHKEYTCKVTQGTTSVVQSFNRGDC
modifications: oryctolagus cuniculus
In the case of B1, the PDACC growth (PDACC) is reported as “inhibitory effects”, the Ki67 positive cells (A375.S2 xenograft tumors; IHC of xenografted tumors) is reported as 13.4±3.0 positive cells/high power field and the p21 positive cells (A375.S2 xenograft tumors; IHC of xenografted tumors) is reported as 24.2±2.4 positive cells. The “number of CD163+ TAMs” value (A375.S2 xenograft tumors; immunofluorescence of xenografts, listed as m28-RNLS) was “decreases CD163+TAMs”, the “total and phosphorylated STAT3 in tumors” value (A375.S2 xenograft tumors; immunofluorescence, listed as m28-RNLS) was “marked reduction; also recorded: dramatic reduction” and the “ratio of CD86+ to CD163+ TAMs” value (A375.S2 xenograft tumors; mouse, in vivo) was “increases the ratio”. The “toxicity of antibody treatment” value (A375.S2 xenograft tumors; overall animal health and activity) was “did not appear to be toxic”, the “mouse RNLS expression in tumor mass” value (A375.S2 xenograft tumors; qPCR, mouse specific primers) was “significant reduction” and the “p-Y705-STAT3 and total STAT3 in tumors” value (A375.S2 xenograft tumors; western blot) was “significantly decreased”. The “phosphorylation of p38 MAPK” value (p38 MAPK) was “sustained phosphorylation” and the renalase isoform specificity [1] was “recognize renalase-1 and renalase-2”.
